The target of assay [1] is T1, cynomolgus monkey LAG-3 on CHO cells (CHO-cynoLAG-3) (cynomolgus monkey).
T1 construct: whole, on cells; Cells prepared by Kelun Biotech Co., Ltd
In words: flow cytometry, FITC-labelled antibody on CHO-cynoLAG-3 cells. As for the experimental part: (§1) 5×10⁵ cells per tube of CHO-cynoLAG-3 and CHO-hLAG-3 cells were taken respectively. […] The dilutions were mixed with cells at a ratio of 1:1, and incubated for 30 minutes at room temperature, followed by washing 3 times with pre-cooled PBS and detection by flow cytometry (Benckman, model CytoFlex). The signal values were input into GraphPad Prism to calculate the EC₅₀ values.
(Flow cytometry measures light scatter and fluorescence of single cells or particles in a stream.)

Assay [2] addresses T2, human LAG-3 (His tag) (human, UniProt P18627 23-450, limits assumed).
T2 construct: also called LAG-3-His antigen; not shown: His tag
T2 sequence (looked up): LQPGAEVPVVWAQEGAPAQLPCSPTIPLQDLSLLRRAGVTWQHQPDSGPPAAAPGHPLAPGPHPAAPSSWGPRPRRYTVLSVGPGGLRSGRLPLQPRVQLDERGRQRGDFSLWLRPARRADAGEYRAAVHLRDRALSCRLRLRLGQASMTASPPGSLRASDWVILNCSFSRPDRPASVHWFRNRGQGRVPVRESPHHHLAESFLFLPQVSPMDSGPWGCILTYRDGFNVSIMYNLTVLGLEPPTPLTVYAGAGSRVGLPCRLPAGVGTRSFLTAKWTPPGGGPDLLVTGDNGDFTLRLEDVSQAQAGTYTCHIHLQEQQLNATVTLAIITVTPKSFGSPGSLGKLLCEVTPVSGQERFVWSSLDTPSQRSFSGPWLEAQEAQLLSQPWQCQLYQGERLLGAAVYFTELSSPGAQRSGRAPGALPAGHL
Description: BLI (ForteBio Octet), LAG-3 His on Ni-NTA sensor. As for the experimental part:
(§2) The binding affinity constant of the purified murine monoclonal antibody #27 to the antigen was determined by Bio-Layer Interferometry (BLI) using the instrument of a PALL company's ForteBio Octet RED & QK system.

The target in assay [3] is T2, human LAG-3 (His tag). In words: FACS competition, antibody blocks the binding of LAG-3-His (12 ug/mL) to MHC II positive A431 cells. As for the experimental part: Human epidermal cancer cell line A431 (purchased from Nanjing Cobioer Company) is an MHC II positive expression cell line. […] The method was also used to evaluate the biological activity of relevant antibodies.
A431 cells were trypsinized, resuspended in PBS, and the cell density was adjusted to 5×10⁶ cells/mL, 100 μL/well. […] The cells were washed twice with pre-cooled PBS, resuspended in 100 µL of solution containing […] of PE anti-His, and incubated at 4° C. for 0.5 hours, washed twice with pre-cooled PBS, and resuspended in PBS.

For assay [4], the target named is T3, human LAG-3 (Uniport entry No. P18627) (human, UniProt P18627 23-450, limits assumed).
T3 sequence (looked up): T2 sequence (looked up)
Description: indirect ELISA on plate-coated human LAG-3 (0.1 ug/ml), HRP goat anti-mouse IgG detection. (In general: In an ELISA, binding on a coated surface is turned into a signal by an enzyme label.)

For assay [5], the target named is T2, human LAG-3 (His tag). In words: BLI (ForteBio Octet), LAG-3 His on Ni-NTA sensor, antibody 3.125-100 nM. As for the experimental part: as §2
Background: BLI is a label-free optical method that tracks binding on a fibre tip over time.

Assay [6] has as its target T4, LAG-3-Tag1 of the LAG-3/MHC II kit (CISBIO, ADK000CLAPEF) (human, UniProt P18627 23-450).
T4 construct: Kit reagent; The construct is not described
Description: HTRF competition, antibody blocks the binding of LAG-3-Tag1 to MHC II-Tag2 (CISBIO kit). As for the experimental part:
Anti-Tag1-Eu³⁺ is a donor of HTRF (Homogeneous Time-Resolved Fluorescence), and anti-Tag2-XL665 acts as a receptor for HTRF. When the two molecules are close to each other, the fluorescence energy is transferred from the donor to the acceptor, accompanied by appearance of a fluorescent signal at 650 nm.
After mixing the anti-Tag1-Eu³⁺ and anti-Tag2-XL665 in equal volumes, each well was added with 10 μl, mixed well, sealed with a film, and incubated for 1 hour at room temperature.

The target in assay [7] is T5, human LAG-3 on CHO cells (CHO-hLAG-3) (human, UniProt P18627 23-525).
T5 construct: whole, on cells; Cells prepared by Kelun Biotech Co., Ltd; also called CHO cells expressing human LAG-3
T5 sequence (looked up): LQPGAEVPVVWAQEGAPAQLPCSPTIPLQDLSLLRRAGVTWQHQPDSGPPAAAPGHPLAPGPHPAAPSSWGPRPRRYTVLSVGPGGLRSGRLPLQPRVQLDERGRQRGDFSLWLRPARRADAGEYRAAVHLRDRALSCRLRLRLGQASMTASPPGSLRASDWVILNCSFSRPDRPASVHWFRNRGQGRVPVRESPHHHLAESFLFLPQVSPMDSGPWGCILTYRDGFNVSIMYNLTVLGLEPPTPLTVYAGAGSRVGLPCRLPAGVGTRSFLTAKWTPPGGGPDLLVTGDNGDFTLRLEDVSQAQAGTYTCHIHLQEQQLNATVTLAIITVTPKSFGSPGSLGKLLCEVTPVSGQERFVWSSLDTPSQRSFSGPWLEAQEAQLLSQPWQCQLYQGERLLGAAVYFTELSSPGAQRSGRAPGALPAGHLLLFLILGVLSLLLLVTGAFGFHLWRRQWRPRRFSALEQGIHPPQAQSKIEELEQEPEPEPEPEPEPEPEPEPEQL
Description: flow cytometry, FITC-labelled antibody on CHO-hLAG-3 cells. As for the experimental part:
as §1

Positions count from the first letter of the chain named.

B1: reference antibody AB12T1 (BMS 986016) (antibody, human IgG4 S228P, kappa, V domains shown)
VH: QVQLQQWGAGLLKPSETLSLTCAVYGGSFSDYYWNWIRQPPGKGLEWIGEINHRGSTNSNPSLKSRVTLSLDTSKNQFSLKLRSVTAADTAVYYCAFGYSDYEYNWFDPWGQGTLVTVSS
VL: EIVLTQSPATLSLSPGERATLSCRASQSISSYLAWYQQKPGQAPRLLIYDASNRATGIPARFSGSGSGTDFTLTISSLEPEDFAVYYCQQRSNWPLTFGQGTNLEIKR
notes: also called positive control antibody AB; FITC-AB12T1
For the molecule B1, in assay [1], the EC50 worked out at 793000 pM.

B2: murine monoclonal antibody #27 (antibody, IgG4, V domains shown)
VH: DVHLQESGPDLVKPSQSLSLTCTVTGYSITSFYSWHWIRQFPGNKLEWMGCIQYSGDTDSNPSLKSRISITRDTSENQLFLHLNSVTTEDTATYYCARSPYDSDPYYVMDYWGQGTSVTVSS
VL: DIVMSQSPSSLAVSVGEKITMTCKSSQSLLYSGNQKNYLAWYQQKPGQSPTLLIYWASTRDSGVPDRLTGSGSGTDFTLTISSVKAEDLAVYYCQQYYAYPYTFGGGTKLETK
notes: Purified from hybridoma supernatant; also called murine antibody #27; monoclonal antibody produced by hybridoma cell line #27 (CCTCC NO.C2017183)
In the assay with human LAG-3 (His tag) [2], B2 returned a Kd of 319 pM, a koff of 3.86e-05 s⁻¹ and a kon of 121000 M⁻¹ s⁻¹. Besides, in the assay with human LAG-3 (His tag) [3], the IC50 turned out to be 10400 pM and the Maximum inhibition % came out at 84.2%. In addition, the “EC50 (read off the curve)” value in assay [4] was ~0.05 µg/mL. Also, in the assay with human LAG-3 (His tag) [5], the Kd was 319 pM, the koff worked out at 3.86e-05 s⁻¹ and the kon worked out at 121000 M⁻¹ s⁻¹.

B3: human-mouse chimeric antibody AB12T2 (antibody, human IgG4 S228P, kappa, V domains shown)
VH: B2 VH
VL: DIVMSQSPSSLAVSVGEKITMTCKSSQSLLYSGNQKNYLAWYQQKPGQSPTLLIYWASTRDSGVPDRLTGSGSGTDFTLTISSVKAEDLAVYYCQQYYAYPYTFGGGTKLETKR
In the assay with human LAG-3 (His tag) [2], B3 came in with a Kd of 574 pM, a koff of 4.97e-05 s⁻¹ and a kon of 100000 M⁻¹ s⁻¹.

B4: humanized antibody AB12T3 (antibody, human IgG4, kappa, V domains shown)
VH: DVQLQESGPGLVKPSQTLSLTCTVTGYSITSFYSWHWIRQHPGKGLEWMGCIQYSGDTDSNPSLKSRITITRDTSENQLSLKLSSVTAADTAVYYCARSPYDSDPYYVMDYWGQGTLVTVSS
VL: DIVMSQSPDSLAVSLGERATITCKSSQSLLYSGNQKNYLAWYQQKPGQPPTLLIYWASTRDSGVPDRLTGSGSGTDFTLTISSLQAEDVAVYYCQQYYAYPYTFGQGTKLEIKR
In the assay with human LAG-3 (His tag) [2], B4 came in with a Kd of 546 pM, a koff of 5.17e-05 s⁻¹ and a kon of 94700 M⁻¹ s⁻¹. This molecule displayed a concentration for half-maximal inhibition (IC50) in assay [6] of 9.45 µg/mL.

B5: humanized antibody AB12T5 (antibody, human IgG4, kappa, V domains shown)
VH: B4 VH with D1Q, T25S, M49I, I68V, T71S, R72V, E76K, L79F, L117S
VL: B4 VL with S5T, T51K, L68F, T69S, Q106G
In the assay with human LAG-3 (His tag) [2], B5 gave an equilibrium dissociation constant (Kd) of 365 pM, a koff of 2.28e-05 s⁻¹ and a kon of 92400 M⁻¹ s⁻¹.

B6: humanized antibody AB12T6 (antibody, human IgG4, kappa, V domains shown)
VH: B4 VH with T17S, T25S, D59Y, S60Y, I68V, T71S, R72V, E76K, L79F
VL: B4 VL with T51K, L68F, T69S, Q106G, I112T
Consider B6, for which, in the assay with human LAG-3 (His tag) [2], binding was put at a Kd of 378 pM.

B7: humanized antibody AB12T7 (antibody, human IgG4, kappa, V domains shown)
VH: QVQLQESGPGLVKPSQTLSLTCTVSGYSITSFYSWSWIRQHPGKGLEWIGYIQYSGDTYYNPSLKSRVTISVDTSKNQFSLKLSSVTAADTAVYYCARSPYDSDPYYVMDYWGQGTLVTVSS
VL: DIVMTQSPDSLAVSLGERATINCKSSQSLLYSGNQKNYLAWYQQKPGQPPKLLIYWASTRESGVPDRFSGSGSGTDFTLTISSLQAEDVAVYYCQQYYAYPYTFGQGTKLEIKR
In the assay with human LAG-3 (His tag) [2], B7 yielded a Kd of 359 pM, a dissociation rate constant (koff) of 2.36e-05 s⁻¹ and a kon of 65800 M⁻¹ s⁻¹.

B8: humanized antibody AB12T4 (antibody, human IgG4 S228P, kappa, V domains shown)
VH: B4 VH with H41F, S80F, V93T
VL: B4 VL with A19I, I21M, P49S, L84V
notes: also called FITC-AB12T4
In the assay with human LAG-3 (His tag) [2], B8 registered a Kd of 258 pM, a koff of 3.09e-05 s⁻¹ and a kon of 120000 M⁻¹ s⁻¹. Also, the 50% effective concentration (EC50) in assay [7] is 12800 pM. The half-maximal inhibitory concentration (IC50) in assay [6] was found to be 6.7 µg/mL. For the same molecule, in the assay with human LAG-3 (His tag) [3], the IC50 worked out at 12700 pM and the Maximum inhibition % was 89.3%. In addition, the EC50 in assay [1] was 803000 pM.

The term EC50 denotes the concentration giving half of the maximal effect. The Kd is the equilibrium constant for the complex coming apart. Broadly, the koff is the first-order rate constant of dissociation. For orientation: kon means a measure of how fast the partners come together. For orientation: IC50 means the concentration that gives 50% inhibition. For orientation: EC50 (read off the curve) means the concentration that produces a half-maximal response.

(Values after patent publication US20200347131A1 (SICHUAN KELUN BIOTECH BIOPHARMACEUTICAL, published 2020).)
